Where a chain is given by its changes, count along the chain named. Numbers in names are those of the source.
Tests used:
EcOpgD = molecular target: T1, EcOpgD (Escherichia coli, UniProt P40120, D388N); experiment: X-ray crystal structure of the complex ([…] Å); assay type: binding; details: co-crystallised with β-1,2-glucan of average DP 121, Sop13 is the part seen in density (chain B; DP11 in chain A); pH 4.0; subsites -7 to +6; Table 3 prints the mutant as D378N
T1 construct: gene mdoD; 60601 Da; homodimer, Loop A of the other subunit completes the site
T1 sequence (P40120 33-551 D388N): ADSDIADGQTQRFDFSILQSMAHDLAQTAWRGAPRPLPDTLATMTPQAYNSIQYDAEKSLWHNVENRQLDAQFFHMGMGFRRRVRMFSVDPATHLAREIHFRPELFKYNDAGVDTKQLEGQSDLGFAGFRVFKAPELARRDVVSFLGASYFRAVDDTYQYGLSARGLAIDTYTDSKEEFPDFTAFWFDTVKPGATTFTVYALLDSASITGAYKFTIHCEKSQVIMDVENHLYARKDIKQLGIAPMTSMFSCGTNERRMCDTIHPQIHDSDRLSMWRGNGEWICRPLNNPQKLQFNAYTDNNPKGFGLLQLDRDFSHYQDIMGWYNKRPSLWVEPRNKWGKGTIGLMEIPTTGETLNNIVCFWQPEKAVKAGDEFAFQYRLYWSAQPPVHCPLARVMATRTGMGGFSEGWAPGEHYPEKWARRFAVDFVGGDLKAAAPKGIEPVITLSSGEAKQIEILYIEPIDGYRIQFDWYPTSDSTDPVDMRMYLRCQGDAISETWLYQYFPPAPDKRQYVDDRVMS

EcOpgG = molecular target: T2, EcOpgG (Escherichia coli, UniProt P33136, D361N); experiment: X-ray crystal structure of the complex ([…] Å); assay type: binding; details: crystallised and soaked with β-1,2-glucan of average DP 17.7, Sop16 is the part seen in density; pH 5.0
T2 construct: gene mdoG; 56543 Da; homodimer
T2 sequence (P33136 23-511 D361N): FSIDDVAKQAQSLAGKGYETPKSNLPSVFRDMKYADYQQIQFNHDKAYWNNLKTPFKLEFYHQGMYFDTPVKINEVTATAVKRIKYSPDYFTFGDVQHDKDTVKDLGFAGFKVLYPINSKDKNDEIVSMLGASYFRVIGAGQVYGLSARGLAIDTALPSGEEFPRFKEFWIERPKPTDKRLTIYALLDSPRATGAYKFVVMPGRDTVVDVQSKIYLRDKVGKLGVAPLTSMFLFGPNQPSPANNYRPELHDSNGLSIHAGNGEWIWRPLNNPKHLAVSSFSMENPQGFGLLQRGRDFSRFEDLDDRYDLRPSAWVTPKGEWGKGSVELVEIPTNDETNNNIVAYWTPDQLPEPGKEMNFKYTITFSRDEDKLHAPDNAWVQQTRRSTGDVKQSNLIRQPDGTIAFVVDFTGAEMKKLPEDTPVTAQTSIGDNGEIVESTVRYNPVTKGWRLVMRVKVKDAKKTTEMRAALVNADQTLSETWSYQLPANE

[1] = molecular target: the molecule itself; experiment: SEC; Superdex 200GL (24 ml), 20 mM Tris-HCl pH 7.5, 100 mM NaCl, 0.5 mg/mL protein loaded, 0.3 mL/min; molecular weight from marker proteins
[2] = molecular target: the molecule itself; experiment: crystal structure; EcOpgG D361N with β-1,2-glucan, 1.81 Å, one chain in the asymmetric unit, dimer with a symmetry mate; 0.1 M MMT pH 5.0, 27% PEG 400, 20 °C
[3] = molecular target: the molecule itself; experiment: crystal structure; ligand-free EcOpgD D388N, 2.95 Å, 12 monomers (six dimers) in the asymmetric unit; 0.1 M Tris-HCl pH 8.5, 0.1 M trimethylamine-N-oxide, 17% PEG 2000 MME, 20 °C

Molecule: OC[C@H]1O[C@@H](O[C@H]2[C@H](O[C@H]3[C@H](O[C@H]4[C@H](O[C@H]5[C@H](O[C@H]6[C@H](O[C@H]7[C@H](O[C@H]8[C@H](O[C@H]9[C@H](O[C@H]%10[C@H](O[C@H]%11[C@H](O[C@H]%12[C@H](O[C@H]%13C(O)O[C@H](CO)[C@@H](O)[C@@H]%13O)O[C@H](CO)[C@@H](O)[C@@H]%12O)O[C@H](CO)[C@@H](O)[C@@H]%11O)O[C@H](CO)[C@@H](O)[C@@H]%10O)O[C@H](CO)[C@@H](O)[C@@H]9O)O[C@H](CO)[C@@H](O)[C@@H]8O)O[C@H](CO)[C@@H](O)[C@@H]7O)O[C@H](CO)[C@@H](O)[C@@H]6O)O[C@H](CO)[C@@H](O)[C@@H]5O)O[C@H](CO)[C@@H](O)[C@@H]4O)O[C@H](CO)[C@@H](O)[C@@H]3O)O[C@H](CO)[C@@H](O)[C@@H]2O)[C@H](O)[C@@H](O)[C@@H]1O (stereo partly drawn) [Sop13]
- X-ray crystal structure of the complex (2.06 Å) (EcOpgD): electron densities of β-1,2-glucans with DP11 and DP13 (Sop11 and Sop13, respectively) were clearly observed

Molecule: OC[C@H]1O[C@@H](O[C@H]2[C@H](O[C@H]3[C@H](O[C@H]4[C@H](O[C@H]5[C@H](O[C@H]6[C@H](O[C@H]7[C@H](O[C@H]8[C@H](O[C@H]9[C@H](O[C@H]%10[C@H](O[C@H]%11[C@H](O[C@H]%12[C@H](O[C@H]%13[C@H](O[C@H]%14[C@H](O[C@H]%15[C@H](O[C@H]%16C(O)O[C@H](CO)[C@@H](O)[C@@H]%16O)O[C@H](CO)[C@@H](O)[C@@H]%15O)O[C@H](CO)[C@@H](O)[C@@H]%14O)O[C@H](CO)[C@@H](O)[C@@H]%13O)O[C@H](CO)[C@@H](O)[C@@H]%12O)O[C@H](CO)[C@@H](O)[C@@H]%11O)O[C@H](CO)[C@@H](O)[C@@H]%10O)O[C@H](CO)[C@@H](O)[C@@H]9O)O[C@H](CO)[C@@H](O)[C@@H]8O)O[C@H](CO)[C@@H](O)[C@@H]7O)O[C@H](CO)[C@@H](O)[C@@H]6O)O[C@H](CO)[C@@H](O)[C@@H]5O)O[C@H](CO)[C@@H](O)[C@@H]4O)O[C@H](CO)[C@@H](O)[C@@H]3O)O[C@H](CO)[C@@H](O)[C@@H]2O)[C@H](O)[C@@H](O)[C@@H]1O (stereo partly drawn) [Sop16]
- X-ray crystal structure of the complex (1.81 Å) (EcOpgG): In the catalytic pocket of the complex, the electron density of a Sop16 molecule was observed

B1: OpgG from E. coli (EcOpgG), wild type, without signal sequence, C-terminal His6-tag (enzyme, Escherichia coli, UniProt P33136 23-511, looked up)
chain: T2 sequence (P33136 23-511 D361N) with N339D
notes: OpgG (glucans biosynthesis protein G) of Escherichia coli, gene amplified from a colony of E. coli BL21(DE3), GenBank CAQ31569.1; theoretical mass 56543 Da; Cloned between the XhoI and NdeI sites of pET30a; also called MdoG; source: E. coli BL21(DE3), purified (HisTrap FF crude)
- stoichiometry N [1]: 2

B2: EcOpgG D361N mutant, without signal sequence, C-terminal His6-tag (enzyme, Escherichia coli, UniProt P33136 23-511, looked up)
chain: T2 sequence (P33136 23-511 D361N)
notes: made from the EcOpgG plasmid of m2; One monomer in the asymmetric unit; the second chain of the dimer is a symmetry mate; source: E. coli BL21(DE3), purified (HisTrap FF crude)
- binding result [2]: binds

B3: OpgD from E. coli (EcOpgD), wild type, without signal sequence, C-terminal His6-tag (enzyme, Escherichia coli, UniProt P40120 33-551, looked up)
chain: T1 sequence (P40120 33-551 D388N) with N356D
notes: OpgD (glucans biosynthesis protein D) of Escherichia coli, gene amplified from a colony of E. coli BL21(DE3), GenBank CAQ31910.2; theoretical mass 60601 Da; Cloned between the XhoI and NdeI sites of pET30a; also called MdoD; source: E. coli BL21(DE3), purified (HisTrap FF crude)
- stoichiometry N [1]: 2

B4: EcOpgD D388N mutant, without signal sequence, C-terminal His6-tag (enzyme, Escherichia coli, UniProt P40120 33-551, looked up)
chain: T1 sequence (P40120 33-551 D388N)
notes: made from the EcOpgD plasmid of m1; text and methods say D388N; source: E. coli BL21(DE3), purified (HisTrap FF crude)
- binding result [3]: binds

Reference: PMC10514313, “Identification of enzymatic functions of osmo-regulated periplasmic glucan biosynthesis proteins from Escherichia coli reveals a novel glycoside hydrolase family” (Communications Biology, 2023)
